The values below come from US20110124071A1, “METHODS AND COMPOSITIONS FOR PRODUCING HYDROCARBONS” (priority 2009, published 2011).

Read-outs that look alike come from different tables or passages of the source.

Data set [1] relates to T1, Prochlorococcus marinus CCMP1986 PMM0532 (NP-892650; putative decarbonylase).
T1 sequence: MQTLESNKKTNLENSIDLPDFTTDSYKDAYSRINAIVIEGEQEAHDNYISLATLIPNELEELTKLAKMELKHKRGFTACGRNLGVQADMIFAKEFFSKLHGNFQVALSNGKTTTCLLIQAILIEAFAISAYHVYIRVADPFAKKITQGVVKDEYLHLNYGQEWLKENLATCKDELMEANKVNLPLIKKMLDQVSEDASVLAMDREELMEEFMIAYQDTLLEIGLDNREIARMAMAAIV

The next data set concerns the target T2, PCC7942_orf1594 protein (Synechococcus elongatus, UniProt Q54765).
T2 construct: His-tag (C); made in house; host or cells: E. coli BL21 (DE3)
T2 sequence (Q54765 1-341): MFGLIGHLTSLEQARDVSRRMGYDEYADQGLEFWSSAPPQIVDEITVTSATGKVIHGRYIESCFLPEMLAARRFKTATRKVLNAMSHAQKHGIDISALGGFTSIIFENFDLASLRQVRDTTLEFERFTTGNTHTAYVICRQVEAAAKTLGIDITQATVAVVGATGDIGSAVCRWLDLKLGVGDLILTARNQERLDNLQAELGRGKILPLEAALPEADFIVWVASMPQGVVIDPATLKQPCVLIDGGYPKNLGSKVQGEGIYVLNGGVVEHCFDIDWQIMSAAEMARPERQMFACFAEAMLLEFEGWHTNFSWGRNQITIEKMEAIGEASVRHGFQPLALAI
The data set can be described thus: acyl-ACP or acyl-CoA reductase enzyme assay, GC/MS. The format is biochemical. Here is the method: (§1) The genomic DNA encoding S. elongatus PCC7492 orf1594 (SEQ ID NO: 66) was cloned into the NcoI and XhoI sites of vector pET-28b under the control of the T7 promoter. The resulting PCC7942_orf1594 protein contained a C-terminal His-tag. An E. coli BL21 strain (DE3) (Invitrogen) was transformed with the plasmid and PCC7942_orf1594 protein was expressed and purified as described in Example 22. The protein solution was stored in the following buffer: 50 mM sodium phosphate, pH 7.5, 100 mM NaCl, 1 mM THP, 10% glycerol. Protein concentration was determined using the Bradford assay (Bio-Rad). 2 mg/ml of PCC7942 orf1594 protein was obtained.
(§2) To test PCC7942_orf1594 protein for acyl-ACP or acyl-CoA reductase activity, the following enzyme assays were set-up. 100 μl reactions were set-up in 50 mM Tris-HCl buffer at pH 7.5 with the following components at their respective final concentrations: 10 μM of purified PCC7942_orf1594 protein, 0.01-1 mM acyl-CoA or acyl-ACP, 2 mM MgCl2, 0.2-2 mM NADPH. The reactions were incubated for 1 h at 37° C. and where stopped by adding 100 μl ethyl acetate (containing 5 mg/l 1-octadecene as internal standard). Samples were vortexed for 15 min and centrifuged at max speed for 3 min for phase separation. 80 μl of the top layer were transferred into GC glass vials and analyzed by GC/MS as described in Example 26. The amount of aldehyde formed was calculated based on the internal standard.

In another data set the test system is E. coli MG1655. The data set can be described thus: Heterologous expression of putative aldehyde-generating enzyme alone in E. coli, GC-MS of extracts. The format is cell-based. Conditions: enzyme expressed alone in E. coli MG1655, M9 minimal media, 37° C. Here is the method:
The genomic DNA encoding Synechococcus elongatus PCC7942 orf1594 (YP—400611; putative aldehyde-generating enzyme) (SEQ ID NO: 65) was amplified and cloned into the NcoI and EcoRI sites of vector OP-80 (pCL1920 derivative) under the control of the Ptrc promoter. The resulting construct (“OP80-PCC7942—1594”) was transformed into E. coli MG1655 and the cells were grown at 37° C. in M9 minimal media with 1% (w/v) glucose as carbon source and supplemented with 100 μg/ml spectinomycin. When the culture reached OD600 of 0.8-1.0, it was induced with 1 mM IPTG and cells were grown for an additional 18-20 h at 37° C. Cells from 0.5 ml of culture were extracted with 0.5 ml of ethyl acetate. After sonication for 60 min, the sample was centrifuged at 15,000 rpm for 5 min. The solvent layer was analyzed by GC-MS as described in Example 1.
The genomic DNA encoding Cyanothece sp. ATCC51142 cce—1430 (YP—001802846; putative aldehyde-generating enzyme) (SEQ ID NO: 70) was amplified and cloned into the NcoI and EcoRI sites of vector OP-80 (pCL1920 derivative) under the control of the Ptrc promoter. The resulting construct was transformed into E. coli MG1655 and the cells were grown at 37° C. in M9 minimal media with 1% (w/v) glucose as carbon source and supplemented with 100 μg/ml spectinomycin. The cells were cultured and extracted as in Example 3 and analyzed by GC-MS as described in Example 26.
The genomic DNA encoding P. mariunus CCMP1986 PMM0533 (NP_892651; putative aldehyde-generating enzyme) (SEQ ID NO: 72) and Prochlorococcus mariunus CCMP1986 PMM0532 (NP_892650; putative decarbonylase) (SEQ ID NO: 19) were amplified and cloned into the NcoI and EcoRI sites of vector OP-80 and the NdeI and XhoI sites of vector OP-183, respectively. The resulting constructs were separately transformed and cotransformed into E. coli MG1655 and the cells were grown at 37° C. in M9 minimal media supplemented with 100 μg/ml spectinomycin and 100 μg/ml carbenicillin. The cells were cultured and extracted as in Example 3 and analyzed by GC-MS as described in Example 26.

Substrate in data set [2]: CCCCCCCCCCCCCCCCCC(=O)SCCNC(=O)CCNC(=O)[C@H](O)C(C)(C)COP(=O)(O)OP(=O)(O)OC[C@H]1O[C@@H](n2cnc3c(N)ncnc32)[C@H](O)[C@@H]1OP(=O)(O)O
The data set can be described thus: acyl-ACP or acyl-CoA reductase enzyme assay, GC/MS. The class given is biochemical. Conditions: other: in the presence of 2 mM NADPH; pH 7.5; 37.0 °C. Here is the method:
as §1
as §2, with “Samples were vortexed for 15 min and centrifuged at max speed for 3 min for phase separation.” left out

The subject of data set [3] is E. coli MG1655 ΔfadE lacZ::Ptrc ′tesA-fadD. The data set can be described thus: Heterologous expression in a fatty acyl-CoA-producing E. coli strain, GC-MS. Conditions: reductase coexpressed with a fatty aldehyde decarbonylase. The format is cell-based. From the text:
The genomic DNA encoding Acaryochloris marina MBIC11017 AM1—4041 (YP—001518340; putative fatty aldehyde decarbonylase) (SEQ ID NO: 9) was synthesized and cloned into the NdeI and XhoI sites of vector OP-183 (pACYC derivative) under the control of the Ptrc promoter. The resulting construct was cotransformed with OP80-PCC7942—1594 into E. coli MG1655 ΔfadE lacZ::Ptrc ′tesA-fadD. This strain expresses a cytoplasmic version of the E. coli thioesterase, ′TesA, and the E. coli acyl-CoA synthetase, FadD, under the control of the Ptrc promoter, and therefore produces fatty acyl-CoAs. The cells were grown at 37° C. in M9 minimal media supplemented with 100 μg/ml spectinomycin and 100 μg/ml carbenicillin. The cells were cultured and extracted as in Example 3 and analyzed by GC-MS as described in Example 1.
The genomic DNA encoding Synechocystis sp. PCC6803 sll0208 (NP_442147; putative fatty aldehyde decarbonylase) (SEQ ID NO: 3) was synthesized and cloned into the NdeI and XhoI sites of vector OP-183 (pACYC derivative) under the control of the Ptrc promoter. The genomic DNA encoding Synechocystis sp. PCC6803 sll0209 (NP_442146; acyl-ACP reductase) (SEQ ID NO: 68) was synthesized and cloned into the NcoI and EcoRI sites of vector OP-183 (pACYC derivative) under the control of the Ptrc promoter. The resulting constructs were cotransformed with into E. coli MG1655 ΔfadE lacZ::Ptrc ′tesA-fadD. This strain expresses a cytoplasmic version of the E. coli thioesterase, ′TesA, and the E. coli acyl-CoA synthetase, FadD, under the control of the Ptrc promoter, and therefore produces fatty acyl-CoAs. The cells were grown at 37° C. in M9 minimal media supplemented with 100 μg/ml spectinomycin and 100 μg/ml carbenicillin. The cells were cultured and extracted as in Example 3 and analyzed by GC-MS as described in Example 26.

The mark [4] stands for this setting: in the presence of 2 mM NADPH, read-out: Km for the reduction by PCC7942_orf1594.

In the case of “Prochlorococcus marinus CCMP1986 PMM0533 (NP-892651; putative aldehyde-generating enzyme)”, the “fatty alcohol, alkane and alkene production (GC/MS) in E. coli MG1655, PMM0533 alone against PMM0533 coexpressed with PMM0532” value in data set [1] was “E. coli cells transformed with only the P. mariunus CCMP1986 PMM0533-bearing vector did not produce any fatty aldehydes or fatty alcohols. However, E. coli cells cotransformed with PMM0533 and PMM0532-bearing vectors produced hexadecanol, pentadecane and heptadecene”. As usually defined, the Km is the concentration of substrate that gives half-maximal velocity. As to `NC(=O)C1=CN([C@@H]2O[C@H](COP(=O)(O)OP(=O)(O)OC[C@H]3O[C@@H](n4cnc5c(N)ncnc54)[C@H](OP(=O)(O)O)[C@@H]3O)[C@@H](O)[C@H]2O)C=CC1` [NADPH], the Km at PCC7942_orf1594 protein (in the presence of 0.5 mM octadecanoyl-CoA, read-out: Km value for NADPH for PCC7942_orf1594) worked out at 400 ± 80 µM. For octadecenoyl-CoA, at PCC7942_orf1594 protein (setting [4]), the Km was 82 ± 22 µM. Regarding `NC(=O)C1=CN([C@@H]2O[C@H](COP(=O)(O)OP(=O)(O)OC[C@H]3O[C@@H](n4cnc5c(N)ncnc54)[C@H](O)[C@@H]3O)[C@@H](O)[C@H]2O)C=CC1` [NADH], the “support of reductase activity as electron donor” value at PCC7942_orf1594 protein (reduction of octadecanoyl-CoA to octadecanal) is given as “did not support reductase activity”.

B1: ATCC51142 cce—1430: Cyanothece sp. ATCC51142 putative aldehyde-generating enzyme, Acyl-ACP reductase (SEQ ID NO: 70) (protein, listed as Cyanothece sp.)
chain: MFGLIGHLTSLEHAHSVADAFGYGPYATQGLDLWCSAPPQFVEHFHVTSITGQTIEGKYIESAFLPEMLIKRRIKAAIRKILNAMAFAQKNNLNITALGGFSSIIFEEFNLKENRQVRNVSLEFDRFTTGNTHTAYIICRQVEQASAKLGIDLSQATVAICGATGDIGSAVCRWLDRKTDTQELFLIARNKERLQRLQDELGRGKIMGLEEALPEADIIVWVASMPKGVEINAETLKKPCLIIDGGYPKNLDTKIKHPDVHILKGGIVEHSLDIDWKIMETVNMDVPSRQMFACFAEAILLEFEQWHTNFSWGRNQITVTKMEQIGEASVKHGLQPLLSW
Consider B1, for which, in the data set with E. coli MG1655, the “production of fatty aldehydes and fatty alcohols” value was “generates aldehydes in vivo”.

B2: PMM0533: Prochlorococcus marinus CCMP1986 putative aldehyde-generating enzyme (SEQ ID NO: 72) (protein, listed as Prochlorococcus marinus)
chain: MFGLIGHSTSFEDAKRKASLLGFDHIADGDLDVWCTAPPQLVENVEVKSAIGISIEGSYIDSCFVPEMLSRFKTARRKVLNAMELAQKKGINITALGGFTSIIFENFNLLQHKQIRNTSLEWERFTTGNTHTAWVICRQLEMNAPKIGIDLKSATVAVVGATGDIGSAVCRWLINKTGIGELLLVARQKEPLDSLQKELDGGTIKNLDEALPEADIVVWVASMPKTMEIDANNLKQPCLMIDGGYPKNLDEKFQGNNIHVVKGGIVRFFNDIGWNMMELAEMQNPQREMFACFAEAMILEFEKCHTNFSWGRNNISLEKMEFIGAASVKHGFSAIGLDKHPKVLAV
For the molecule B2, the “production of fatty aldehydes and fatty alcohols” value in the data set on E. coli MG1655 was “did not produce any fatty aldehydes or fatty alcohols”.

B3: PCC7942_orf1594 protein (Synechococcus elongatus PCC 7942 = FACHB-805) (protein)
chain: MFGLIGHLTSLEQARDVSRRMGYDEYADQGLEFWSSAPPQIVDEITVTSATGKVIHGRYIESCFLPEMLAARRFKTATRKVLNAMSHAQKHGIDISALGGFTSIIFENFDLASLRQVRDTTLEFERFTTGNTHTAYVICRQVEAAAKTLGIDITQATVAVVGATGDIGSAVCRWLDLKLGVGDLILTARNQERLDNLQAELGRGKILPLEAALPEADFIVWVASMPQGVVIDPATLKQPCVLIDGGYPKNLGSKVQGEGIYVLNGGVVEHCFDIDWQIMSAAEMARPERQMFACFAEAMLLEFEGWHTNFSWGRNQITIEKMEAIGEASVRHGFQPLALAI
notes: His-tag (C); made in house; host or cells: E. coli BL21 (DE3)
B3: in data set [2], the Km worked out at 45 ± 20 µM. In the data set on E. coli MG1655, the “production of fatty aldehydes and fatty alcohols” value was “generates aldehydes in vivo”. Moreover, in data set [3], the “use of acyl-CoA as substrate to produce fatty aldehydes” value was “able to use acyl-CoA as a substrate”. Moreover, the “Km for the reduction of octadecenoyl-ACP in the presence of 2 mM NADPH (in vitro reductase assay, GC/MS)” value in the data set with octadecenoyl-ACP came to 7.8 ± 2 µM.

B4: octadecenoyl-ACP (conjugate, UniProt Q31QV1 1-80, looked up)
Acyl carrier protein: MSQEDIFSKVKDIVAEQLSVDVAEVKPESSFQNDLGADSLDTVELVMALEEAFDIEIPDEAAEGIATVQDAVDFIASKAA
modifications: octadecenoyl acyl thioester
notes: acyl-ACP (acyl carrier protein) substrate of PCC7942_orf1594 reductase
On to B4, for which the Km in the data set with PCC7942_orf1594 protein (setting [4]) was found to be 7.8 ± 2 µM.
